Consider one molecule from paper PMC5021340, “The Involvement of Mig1 from Xanthophyllomyces dendrorhous in Catabolic Repression: An Active Mechanism Contributing to the Regulation of Carotenoid Production”.

The target in the data set is Mig1 (Xanthophyllomyces dendrorhous, UniProt A0A1C9UL02 1-863). Kind of data set: EMSA; poly(dI-dC); 20 mM HEPES pH 7.9, 50 mM KCl, 1 mM DTT, 0.1 mM EDTA, 5% glycerol (+2.5%), 200 ug/ml BSA, 50 ng/ul poly(dI-dC), 0.05% NP-40, 20 fmol DNA, 10 ug Mig1 in 20 ul, room temperature 20 min. Particulars: protein: recombinant; (pET-TEV), removed by TEV protease; label: 5' biotin; blunt. For orientation: A gel shift assay detects complexes by their altered migration in electrophoresis.
Mig1, sequence (A0A1C9UL02 entry or part of it): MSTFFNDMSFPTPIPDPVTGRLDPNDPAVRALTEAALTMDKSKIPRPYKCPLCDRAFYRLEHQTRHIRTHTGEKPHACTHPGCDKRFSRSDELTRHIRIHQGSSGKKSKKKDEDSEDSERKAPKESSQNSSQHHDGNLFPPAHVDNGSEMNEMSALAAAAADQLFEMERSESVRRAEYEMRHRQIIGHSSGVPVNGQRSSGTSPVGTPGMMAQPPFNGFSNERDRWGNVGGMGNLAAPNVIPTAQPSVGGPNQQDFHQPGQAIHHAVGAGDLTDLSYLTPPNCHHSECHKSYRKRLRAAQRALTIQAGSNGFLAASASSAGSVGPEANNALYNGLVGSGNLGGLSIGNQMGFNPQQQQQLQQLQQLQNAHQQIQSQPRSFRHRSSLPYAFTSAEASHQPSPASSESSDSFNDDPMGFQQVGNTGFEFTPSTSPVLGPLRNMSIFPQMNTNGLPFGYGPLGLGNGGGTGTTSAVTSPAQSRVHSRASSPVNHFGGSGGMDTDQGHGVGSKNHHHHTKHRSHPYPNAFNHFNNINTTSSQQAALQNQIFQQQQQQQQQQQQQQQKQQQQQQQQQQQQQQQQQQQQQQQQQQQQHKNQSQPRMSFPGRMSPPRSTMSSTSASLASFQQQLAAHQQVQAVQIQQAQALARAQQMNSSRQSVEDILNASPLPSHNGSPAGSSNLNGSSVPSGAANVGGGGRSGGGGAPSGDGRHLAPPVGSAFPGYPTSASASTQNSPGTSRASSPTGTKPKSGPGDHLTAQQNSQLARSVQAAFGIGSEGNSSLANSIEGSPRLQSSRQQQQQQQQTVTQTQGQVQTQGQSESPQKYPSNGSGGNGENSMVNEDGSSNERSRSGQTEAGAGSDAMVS

B1: grg2 box A (-348) 54 bp (dsDNA)
DNA 1: GAGGTATATGCGTTCCGCGAACTGCGGAGATGTGACGTCACATCTCGTCACAGC
DNA 2: GCTGTGACGAGATGTGACGTCACATCTCCGCAGTTCGCGGAACGCATATACCTC
With B1, the binding result is listed as “binds”.
